Measured values reported in US20240327535A1 (EISAI R AND D MANAGEMENT, published 2024).
Read-outs that look alike come from different tables or passages of the source.

T1: human BCMA on NCI-H929, OPM2 and Raji cells (human, UniProt Q02223 1-184)
T1 construct: endogenous BCMA of human cell lines; also called TNFRSF17; CD269
T1 chain: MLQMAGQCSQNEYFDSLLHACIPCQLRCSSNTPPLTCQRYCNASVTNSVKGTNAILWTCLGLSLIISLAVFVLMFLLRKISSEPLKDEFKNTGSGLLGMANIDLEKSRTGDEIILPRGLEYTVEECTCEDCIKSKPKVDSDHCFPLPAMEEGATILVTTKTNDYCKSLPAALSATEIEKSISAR

T2: extracellular domain of human BCMA (human, UniProt Q02223 1-54)
T2 construct: amine-linked to Octet AR2G tips; also called hsBCMA; BCMA (human)
T2 sequence: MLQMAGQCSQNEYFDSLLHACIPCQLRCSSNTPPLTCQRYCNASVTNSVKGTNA


Experiments:
[1] = molecular target: T1, human BCMA on NCI-H929, OPM2 and Raji …; assay: flow cytometry, OPM2 cells
[2] = molecular target: T1, human BCMA on NCI-H929, OPM2 and Raji …; assay: flow cytometry, Raji cells
[3] = molecular target: T1, human BCMA on NCI-H929, OPM2 and Raji …; assay: flow cytometry, NCI-H929 cells
[4] = molecular target: T1, human BCMA on NCI-H929, OPM2 and Raji …; assay: flow cytometry, NCI-H929 cells
[5] = molecular target: T1, human BCMA on NCI-H929, OPM2 and Raji …; assay: flow cytometry on NCI-H929 cells (BCMA high), fluorescent anti-human IgG1 secondary antibody, MFI against test article concentration
[6] = molecular target: T1, human BCMA on NCI-H929, OPM2 and Raji …; assay: cell-based or functional assay
[7] = molecular target: T3, extracellular domain of rhesus monkey BCMA (rhesus monkey, UniProt F7FFA0 1-53); assay: Octet BLI; Fab 200 nM
T3 construct: extracellular domain; also called RhBCMA

[8] = molecular target: T2, extracellular domain of human BCMA; assay: Octet BLI; Fab 200 nM
[9] = molecular target: T3, extracellular domain of rhesus monkey …; assay: Octet BLI; Fab 200 nM; remark: listed apart in the source
[10] = molecular target: T2, extracellular domain of human BCMA; assay: Octet BLI; Fab 200 nM; remark: listed apart in the source
[11] = molecular target: T3, extracellular domain of rhesus monkey …; assay: Octet BLI; Fab 200 nM; remark: listed apart in the source
[12] = molecular target: T2, extracellular domain of human BCMA; assay: Octet BLI; Fab 200 nM; remark: listed apart in the source

T3 sequence (F7FFA0 entry or part of it): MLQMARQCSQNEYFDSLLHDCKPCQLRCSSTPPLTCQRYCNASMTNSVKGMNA

| Binder | Kd [4] | EC50 (read off the curve) [5] | GI50 (nM) OPM2.1, cell viability [6] | LD50 (nM) OPM2.1, cell viability [6] | further results |
| --- | --- | --- | --- | --- | --- |
| AB212 (antibody, human IgG1, kappa, V domains shown, IgG1 kappa) VH: QVQLVQSGAEVKKPGSSVKVSCKASGGTFSNYWIHWVRQAPGQGLEWMGGTYRSHSDTNYNQKFKSRVTITADKSTSTAYMELSSLRSEDTAVYYCARGAIYHGYDVIENWGQGTLVTVSS VL: DIQMTQSPSSLSASVGDRVTITCRASQSISSYLNWYQQKPGKAPKLLIYATSNLQIGVPSRFSGSGSGTDFTLTISSLQPEDFATYYCQQFRRLPWTFGQGTKLEIKR | – | – | – | – | Kd [1]: 4.33 nM; Kd [2]: 16 nM; Kd [3]: 9.68 nM |
| AB200-ADL1-D2-02 (antibody, human IgG1, kappa, V domains shown, ADL1-D2 linker-payload on cysteine residues of the antibody, DAR 3.92, antibody-drug conjugate; also called AB200 ADC incorporating the ADL1-D2 linker-payload) VH: QVQLVQSGAEVKKPGSSVKVSCKASGGTFSNYWMHWVRQAPGQGLEWMGATYRGHSDTYYNQKFKGRVTITADKSTSTAYMELSSLRSEDTAVYYCARGAIYDGYDVLDNWGQGTLVTVSS VL: DIQMTQSPSSLSASVGDRVTITCSASQDISNYLNWYQQKPGKAPKLLIYYTSNLHSGVPSRFSGSGSGTDFTLTISSLQPEDFATYYCQQYRKLPWTFGQGTKLEIKR | 9.66 nM | ~9 nM | – | – | – |
| AB200-ADL1-D12-05 (antibody, human IgG1, kappa, V domains shown, ADL1-D12 linker-payload on cysteine residues of the antibody, DAR 4.24, antibody-drug conjugate) VH: QVQLVQSGAEVKKPGSSVKVSCKASGGTFSNYWMHWVRQAPGQGLEWMGATYRGHSDTYYNQKFKGRVTITADKSTSTAYMELSSLRSEDTAVYYCARGAIYDGYDVLDNWGQGTLVTVSS VL: DIQMTQSPSSLSASVGDRVTITCSASQDISNYLNWYQQKPGKAPKLLIYYTSNLHSGVPSRFSGSGSGTDFTLTISSLQPEDFATYYCQQYRKLPWTFGQGTKLEIKR | 9.7 nM | ~9 nM | – | – | – |
| AB214-ADL1-D2-02 (antibody, human IgG1, kappa, V domains shown, ADL1-D2 linker-payload on cysteine residues of the antibody, DAR 4.12) VH: QVQLVQSGAEVKKPGSSVKVSCKASGGTFSNYWIHWVRQAPGQGLEWMGATYRSQSDTYYNQKYKSRVTITADKSTSTAYMELSSLRSEDTAVYYCARGAVYHGYDVIDNWGQGTLVTVSS VL: DIQMTQSPSSLSASVGDRVTITCRASQSISSYLNWYQQKPGKAPKLLIYATSNLQIGVPSRFSGSGSGTDFTLTISSLQPEDFATYYCQQYRRIPWTFGQGTKLEIKR | 1.02 nM | ~1 nM | 1.54 nM | 25.1 nM | – |
| AB200 (antibody, human IgG1, kappa, V domains shown, IgG1 kappa) VH: QVQLVQSGAEVKKPGSSVKVSCKASGGTFSNYWMHWVRQAPGQGLEWMGATYRGHSDTYYNQKFKGRVTITADKSTSTAYMELSSLRSEDTAVYYCARGAIYDGYDVLDNWGQGTLVTVSS VL: DIQMTQSPSSLSASVGDRVTITCSASQDISNYLNWYQQKPGKAPKLLIYYTSNLHSGVPSRFSGSGSGTDFTLTISSLQPEDFATYYCQQYRKLPWTFGQGTKLEIKR | – | – | – | – | Kd [1]: 10 nM; Kd [2]: 14 nM; Kd [3]: 50.5 nM |
| AB215-ADL1-D2-02 (antibody, human IgG1, kappa, V domains shown, ADL1-D2 linker-payload on cysteine residues of the antibody, DAR 3.96) VH: QVQLVQSGAEVKKPGSSVKVSCKASGGTFTNYWIHWVRQAPGQGLEWMGGTYRSHSTTYYNQKFKSRVTITADKSTSTAYMELSSLRSEDTAVYYCARGAVYHGYDVIDNWGQGTLVTVSS VL: DIQMTQSPSSLSASVGDRVTITCRASQSISSYLNWYQQKPGKAPKLLIYATSNLQIGVPSRFSGSGSGTDFTLTISSLQPEDFATYYCQQYRRIPWTFGQGTKLEIKR | 1.3 nM | ~1 nM | 4.04 nM | 73.7 nM | – |
| AB213-ADL1-D2-02 (antibody, human IgG1, kappa, V domains shown, ADL1-D2 linker-payload on cysteine residues of the antibody, DAR 4.18) VH: QVQLVQSGAEVKKPGSSVKVSCKASGGTFTNYWIHWVRQAPGQGLEWMGGTYRSHSTTYYNQKFKSRVTITADKSTSTAYMELSSLRSEDTAVYYCARGAVYHGYDVIDNWGQGTLVTVSS VL: DIQMTQSPSSLSASVGDRVTITCRASQSISSYLNWYQQKPGKAPKLLIYATSNLQIGVPSRFSGSGSGTDFTLTISSLQPEDFATYYCQQFRRLPWTFGQGTKLEIKR | 0.5 nM | ~0.6 nM | – | – | – |
| AB212-ADL1-D2-02 (antibody, human IgG1, kappa, V domains shown, ADL1-D2 linker-payload on cysteine residues of the antibody, DAR 5.17) VH: QVQLVQSGAEVKKPGSSVKVSCKASGGTFSNYWIHWVRQAPGQGLEWMGGTYRSHSDTNYNQKFKSRVTITADKSTSTAYMELSSLRSEDTAVYYCARGAIYHGYDVIENWGQGTLVTVSS VL: DIQMTQSPSSLSASVGDRVTITCRASQSISSYLNWYQQKPGKAPKLLIYATSNLQIGVPSRFSGSGSGTDFTLTISSLQPEDFATYYCQQFRRLPWTFGQGTKLEIKR | 1.3 nM | – | – | – | – |
| AB200-(2Vk44)_R2-VH-v72 (Fab, V domains shown) VH: QVQLVQSGAEVKKPGSSVKVSCKASGGTFSNYWIHWVRQAPGQGLEWMGATYRIQSDTYYAQKFKSRVTITADKSTSTAYMELSSLRSEDTAVYYCARGAVYHGYDVIDNWGQGTLVTVSS VL: DIQMTQSPSSLSASVGDRVTITCRASQSISSYINWYQQKPGKAPKLLIYATSNLQIGVPSRFSGSGSGTDFTLTISSLQPEDFATYYCQQYRRLPWSFGQGTKLEIKR | – | – | – | – | Kd [7]: 12.4 nM; Kd [8]: 2.16 nM |
| AB218-ADL1-D2-02 (antibody, human IgG1, kappa, V domains shown, ADL1-D2 linker-payload on cysteine residues of the antibody, DAR 3.77) VH: QVQLVQSGAEVKKPGSSVKVSCKASGGTFSNYWIHWVRQAPGQGLEWMGATYRSQSTTYYNQKFKSRVTITADKSTSTAYMELSSLRSEDTAVYYCARGAVYHGYDVIDNWGQGTLVTVSS VL: DIQMTQSPSSLSASVGDRVTITCRASQSISSYLNWYQQKPGKAPKLLIYATSNLQIGVPSRFSGSGSGTDFTLTISSLQPEDFATYYCQQFRRLPWTFGQGTKLEIKR | 0.333 nM | – | 0.985 nM | 19.8 nM | – |
| AB217-ADL1-D2-02 (antibody, human IgG1, kappa, V domains shown, ADL1-D2 linker-payload on cysteine residues of the antibody, DAR 3.7) VH: QVQLVQSGAEVKKPGSSVKVSCKASGGTFTNYWIHWVRQAPGQGLEWMGATYRSHSDTYYAQKYKSRVTITADKSTSTAYMELSSLRSEDTAVYYCARGAVYHGYDVIDNWGQGTLVTVSS VL: DIQMTQSPSSLSASVGDRVTITCRASQSISSYINWYQQKPGKAPKLLIYATSNLQSGVPSRFSGSGSGTDFTLTISSLQPEDFATYYCQQYRRIPWTFGQGTKLEIKR | 0.366 nM | ~0.4 nM | 2.17 nM | 16.3 nM | – |
| AB216-ADL1-D2-02 (antibody, human IgG1, kappa, V domains shown, ADL1-D2 linker-payload on cysteine residues of the antibody, DAR 3.8) VH: QVQLVQSGAEVKKPGSSVKVSCKASGGTFSNYWIHWVRQAPGQGLEWMGATYRIQSDTYYNQKYKSRVTITADKSTSTAYMELSSLRSEDTAVYYCARGAVYHGYDVIDNWGQGTLVTVSS VL: DIQMTQSPSSLSASVGDRVTITCRASQSISSYINWYQQKPGKAPKLLIYATSNLQIGVPSRFSGSGSGTDFTLTISSLQPEDFATYYCQQYRRLPWSFGQGTKLEIKR | 0.836 nM | ~0.7 nM | 1.56 nM | 14 nM | – |
| AB200-(2Vk44)_R2-VH-v70 (Fab, V domains shown) VH: QVQLVQSGAEVKKPGSSVKVSCKASGGTFSNYWIHWVRQAPGQGLEWMGATYRIHSDTNYNQKYKSRVTITADKSTSTAYMELSSLRSEDTAVYYCARGAVYHGYDVIDNWGQGTLVTVSS VL: DIQMTQSPSSLSASVGDRVTITCRASQSISSYINWYQQKPGKAPKLLIYATSNLQIGVPSRFSGSGSGTDFTLTISSLQPEDFATYYCQQYRRLPWSFGQGTKLEIKR | – | – | – | – | Kd [7]: 35.8 nM; Kd [8]: 12.4 nM |
| AB216 (antibody, human IgG1, kappa, V domains shown, IgG1 kappa) VH: QVQLVQSGAEVKKPGSSVKVSCKASGGTFSNYWIHWVRQAPGQGLEWMGATYRIQSDTYYNQKYKSRVTITADKSTSTAYMELSSLRSEDTAVYYCARGAVYHGYDVIDNWGQGTLVTVSS VL: DIQMTQSPSSLSASVGDRVTITCRASQSISSYINWYQQKPGKAPKLLIYATSNLQIGVPSRFSGSGSGTDFTLTISSLQPEDFATYYCQQYRRLPWSFGQGTKLEIKR | – | – | – | – | Kd [1]: 2.27 nM; Kd [2]: 6.43 nM; Kd [3]: 3.05 nM |
| AB200-(2Vk31)_R2-VH-v3 (Fab, V domains shown, also called AB200_VH2-03_VK2-31) VH: QVQLVQSGAEVKKPGSSVKVSCKASGGTFTNYWIHWVRQAPGQGLEWMGGTYRSHSTTYYNQKFKSRVTITADKSTSTAYMELSSLRSEDTAVYYCARGAVYHGYDVIDNWGQGTLVTVSS VL: DIQMTQSPSSLSASVGDRVTITCRASQSISSYLNWYQQKPGKAPKLLIYATSNLQIGVPSRFSGSGSGTDFTLTISSLQPEDFATYYCQQFRRLPWTFGQGTKLEIKR | – | – | – | – | Kd [9]: 5.03 nM; Kd [10]: 2.7 nM; Kd [11]: 5.73 nM; Kd [12]: 2.55 nM |
| AB218 (antibody, human IgG1, kappa, V domains shown, IgG1 kappa) VH: QVQLVQSGAEVKKPGSSVKVSCKASGGTFSNYWIHWVRQAPGQGLEWMGATYRSQSTTYYNQKFKSRVTITADKSTSTAYMELSSLRSEDTAVYYCARGAVYHGYDVIDNWGQGTLVTVSS VL: DIQMTQSPSSLSASVGDRVTITCRASQSISSYLNWYQQKPGKAPKLLIYATSNLQIGVPSRFSGSGSGTDFTLTISSLQPEDFATYYCQQFRRLPWTFGQGTKLEIKR | – | – | – | – | Kd [1]: 0.687 nM; Kd [2]: 2.15 nM; Kd [3]: 0.987 nM |
